Laboratory results as given in patent US7255859.

Legend:
[1] = molecular target: Bio-N-HA (biotinoyl-ε-Aca-…-amide) (human influenza virus); test: SPR (BIACORE), biotinylated peptide on streptavidin chip, antibody in solution
[2] = molecular target: Bio-C-HA (acetyl-… (ε-biotinoyl)-amide) (human influenza virus); test: as above
[3] = molecular target: epitope … (98-106) of the haemagglutinin of the human influenza virus (human influenza virus); test: rounded affinity in the description; antigen not given
[4] = molecular target: Glutathione-S-transferase modified with the HA epitope (GST-HA) (human influenza virus); test: Western blot, 4 ng GST-HA per lane, primary antibody titrated; chemiluminescence
[5] = molecular target: Green-fluorescent protein modified with the HA epitope (GFP-HA) (human influenza virus) [GFP: P42212]; test: immunoprecipitation of 50 ng GFP-HA with protein G, then Western blot
[6] = molecular target: Glutathione-S-transferase modified with the HA epitope (GST-HA) (human influenza virus); test: Western blot of serially diluted GST-HA; 0.1 µg/ml 3F10 against 1 µg/ml 12CA5; chemiluminescence
[7] = molecular target: Glutathione-S-transferase modified with the HA epitope (GST-HA) (human influenza virus); test: Western blot of serially diluted GST-HA with antibody-peroxidase conjugate (100 ng/ml); chemiluminescence
[8] = molecular target: Glutathione-S-transferase modified with the HA epitope (GST-HA) (human influenza virus); test: Western blot of serially diluted GST-HA with antibody-peroxidase conjugate (20 mU/ml); chemiluminescence

Row | Substance | Ka [1] | koff [1] | kon [1] | Ka [2] | koff [2] | kon [2] | Ka [3] | antibody concentration at signal saturation [4] | fold lower antibody concentration for comparable signals against clone 12CA5 [4] | fold lower antibody quantity to precipitate the antigen against clone 12CA5 [5] | fold lower detectable amount of GST-HA against clone 12CA5 [6] | fold higher affinity than 12CA5 and BabCo [3] | detection limit [7] | amount still detected [8] | antibody concentration at which the antibody becomes the limiting factor [4]
1 | anti-HA BabCo (antibody) | 2.3e+07 M⁻¹ | 0.0005 s⁻¹ | 12000 M⁻¹ s⁻¹ | 9.3e+06 M⁻¹ | 0.001 s⁻¹ | 9500 M⁻¹ s⁻¹ | 1e+07 M⁻¹ | – | – | – | – | – | – | – | –
2 | mAB R 3F10 (antibody) | 6.8e+09 M⁻¹ | 9.1e-05 s⁻¹ | 620000 M⁻¹ s⁻¹ | 1.2e+10 M⁻¹ | 4.8e-05 s⁻¹ | 590000 M⁻¹ s⁻¹ | 1e+10 M⁻¹ | 125 ng/mL | 20 fold | < 20 fold | 30 fold | 30 fold | – | – | –
3 | peroxidase conjugate of the clone 12CA5 (antibody) | – | – | – | – | – | – | – | – | – | – | – | – | 1 ng GST-HA | – | –
4 | peroxidase conjugate of the clone 3F10 (antibody) | – | – | – | – | – | – | – | – | – | – | – | – | – | 40 pg GST-HA | –
5 | mAB 12CA5 (antibody) | 2.6e+08 M⁻¹ | 0.00021 s⁻¹ | 53000 M⁻¹ s⁻¹ | 9.2e+07 M⁻¹ | 0.00026 s⁻¹ | 23000 M⁻¹ s⁻¹ | 1e+08 M⁻¹ | – | – | – | – | – | – | – | < 2000 ng/mL
